In experiment [1] the target is biotinylated multidomain FZD3 (C-terminally truncated, in detergent) (human) (UniProt Q9NPG1). The experiment can be described thus: BLI; Octet Red 96e; biotinylated multidomain FZD3 or FZD6 in detergent immobilised, nanobody or DEP in solution; 10 mM HEPES pH 7.5, 150 mM NaCl, 0.02% Tween 20, 0.005% GDN; 1:1 binding model.
Experiment [2] concerns the target biotinylated FZD6 cysteine-rich domain (CRD) (human). The experiment can be described thus: BLI; Octet Red 96e; biotinylated FZD3 or FZD6 CRD immobilised, Nb8 or Wnt5a in solution; 10 mM HEPES pH 7.5, 150 mM NaCl, 0.02% Tween 20, 0.005% GDN; 1:1 binding model.
Experiment [3] has as its target biotinylated FZD3 cysteine-rich domain (CRD) (human) (UniProt Q9NPG1). The experiment is described as above.

Sequence of biotinylated FZD6 cysteine-rich domain (CRD) (human) (O60353 22-139): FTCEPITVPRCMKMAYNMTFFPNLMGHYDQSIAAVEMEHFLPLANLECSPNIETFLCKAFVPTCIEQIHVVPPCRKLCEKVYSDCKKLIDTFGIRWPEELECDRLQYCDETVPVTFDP

B1: DVL2 DEP domain (domain or fragment)
chain: PESGLEVRDRMWLKITIPNAFLGSDVVDWLYHHVEGFPERREARKYASGLLKAGLIRHTVNKITFSEQCYYVFGD
In the case of B1, the equilibrium dissociation constant (Kd) in experiment [1] is 460 nM.

B2: Nb8 (VHH)
VHH: QVQLVESGGGLVQAGGSLRLSCAASGSISSINAMGWYRQAPGKQRELVAAITSGGSTNYADSVKGRFTISRDNAKNTVYLQMNSLKPGDTAVYYCNLLYYIDYVEYDYWGQGTQVTVSS
On to B2, for which, in experiment [2], the Kd turned out to be 1200 nM.

B3: human Wnt5a (ligand)
chain: IIGAQPLCSQLAGLSQGQKKLCHLYQDHMQYIGEGAKTGIKECQYQFRHRRWNCSTVDNTSVFGRVMQIGSRETAFTYAVSAAGVVNAMSRACREGELSTCGCSRAARPKDLPRDWLWGGCGDNIDYGYRFAKEFVDARERERIHAKGSYESARILMNLHNNEAGRRTVYNLADVACKCHGVSGSCSLKTCWLQLADFRKVGDALKEKYDSAAAMRLNSRGKLVQVNSRFNSPTTQDLVYIDPSPDYCVRNESTGSLGTQGRLCNKTSEGMDGCELMCCGRGYDQFKTVQTERCHCKFHWCCYVKCKKCTEIVDQFVCK
In experiment [3], B3 registered a Kd of 83 nM.

For the origin of these results see publication PMC11341715.
